Positions of bridges follow the written chain, without caps; N, C: chain ends. Non-standard residues stand in square brackets, D forms with d. Hyp = O=C(O)[C@@H]1C[C@@H](O)CN1; Aib = CC(C)(N)C(=O)O; GABA = NCCCC(=O)O; Sar = CNCC(=O)O
Experiments:
[1] = target: T1, human melanocortin 4 receptor (human, UniProt P32245 1-332); test: cell-based or functional assay
[2] = target: human melanocortin 1 receptor (human, UniProt Q01726 1-317); test: cell-based or functional assay
[3] = target: T1, human melanocortin 4 receptor; test: competition with 125-NDP-α-MSH, BHK human MC4R membranes
In short: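 Competition binding used membranes from BHK cells stably expressing human MC4R with ¹²⁵I-NDP-α-MSH (apx. […] final), compound at 1 μM–0.001 nM. Incubation was 2 h at 25 °C in HEPES pH 7.0 buffer with CaCl₂, MgSO₄, EGTA, Tween 20 and 0.1% HSA or ovalbumin. Filter-bound radioactivity was fitted by non-linear regression.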

T1 sequence (P32245 whole entry): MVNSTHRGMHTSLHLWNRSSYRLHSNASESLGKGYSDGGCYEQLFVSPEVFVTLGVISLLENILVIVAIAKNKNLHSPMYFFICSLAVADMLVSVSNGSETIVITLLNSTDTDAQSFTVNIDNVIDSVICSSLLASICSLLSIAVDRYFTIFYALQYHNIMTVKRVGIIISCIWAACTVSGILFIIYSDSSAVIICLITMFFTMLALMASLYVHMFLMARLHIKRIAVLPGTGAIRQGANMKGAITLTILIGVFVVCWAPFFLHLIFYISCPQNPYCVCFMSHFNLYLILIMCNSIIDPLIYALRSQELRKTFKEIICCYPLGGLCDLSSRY
Sequence of human melanocortin 1 receptor (Q01726 whole entry): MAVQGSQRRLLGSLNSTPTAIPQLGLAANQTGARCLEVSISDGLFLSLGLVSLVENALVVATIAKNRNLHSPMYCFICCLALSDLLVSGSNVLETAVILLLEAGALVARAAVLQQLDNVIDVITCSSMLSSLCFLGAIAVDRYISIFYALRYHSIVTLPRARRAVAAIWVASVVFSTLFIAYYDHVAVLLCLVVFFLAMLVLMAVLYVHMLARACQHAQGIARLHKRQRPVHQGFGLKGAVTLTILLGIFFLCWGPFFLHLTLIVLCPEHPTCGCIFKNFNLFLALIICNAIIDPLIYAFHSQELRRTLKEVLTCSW

Binder	MC4R cAMP EC50 [1] [pM]	MC1R cAMP EC50 [2] [pM]	Ki [3] [pM]
cyclo(CH[dF]RWGCH[dF]RWG) (disulfide 1-7; SMILES N=C(N)NCCC[C@@H]1NC(=O)[C@@H](Cc2ccccc2)NC(=O)[C@H](Cc2c[nH]cn2)NC(=O)[C@@H]2CSSC[C@H](NC(=O)CNC(=O)[C@H](Cc3c[nH]c4ccccc34)NC1=O)C(=O)N[C@@H](Cc1c[nH]cn1)C(=O)N[C@H](Cc1ccccc1)C(=O)N[C@@H](CCCNC(=N)N)C(=O)N[C@@H](Cc1c[nH]c3ccccc13)C(=O)NCC(=O)N2, also called c[c[Cys-His-D-Phe-Arg-Trp-Gly-Cys]-His-D-Phe-Arg-Trp-Gly]) [Chem. 4]	90	670	690
cyclo(C[Sar]H[dF]RWC[Sar]H[dF]RW) (disulfide 1-7; SMILES CN1CC(=O)N[C@@H](Cc2c[nH]cn2)C(=O)N[C@H](Cc2ccccc2)C(=O)N[C@@H](CCCNC(=N)N)C(=O)N[C@@H](Cc2c[nH]c3ccccc23)C(=O)N[C@H]2CSSC[C@H](NC(=O)[C@H](Cc3c[nH]c4ccccc34)NC(=O)[C@H](CCCNC(=N)N)NC(=O)[C@@H](Cc3ccccc3)NC(=O)[C@H](Cc3c[nH]cn3)NC(=O)CN(C)C2=O)C1=O, also called c[c[Cys-Sar-His-D-Phe-Arg-Trp-Cys]-Sar-His-D-Phe-Arg-Trp]) [Chem. 31]	290	7780	1670
cyclo(C[Aib]P[dF]RWC[Aib]P[dF]RW) (disulfide 1-7; SMILES CC1(C)NC(=O)[C@@H]2CSSC[C@H](NC(=O)[C@H](Cc3c[nH]c4ccccc34)NC(=O)[C@H](CCCNC(=N)N)NC(=O)[C@@H](Cc3ccccc3)NC(=O)[C@@H]3CCCN3C1=O)C(=O)NC(C)(C)C(=O)N1CCC[C@H]1C(=O)N[C@H](Cc1ccccc1)C(=O)N[C@@H](CCCNC(=N)N)C(=O)N[C@@H](Cc1c[nH]c3ccccc13)C(=O)N2, also called c[c[Cys-Aib-Pro-D-Phe-Arg-Trp-Cys]-Aib-Pro-D-Phe-Arg-Trp]) [Chem. 39]	1540	56400	1800
cyclo(C[Hyp]H[dF]RWC[Hyp]H[dF]RW) (disulfide 1-7; SMILES N=C(N)NCCC[C@@H]1NC(=O)[C@@H](Cc2ccccc2)NC(=O)[C@H](Cc2c[nH]cn2)NC(=O)[C@@H]2C[C@@H](O)CN2C(=O)[C@@H]2CSSC[C@H](NC(=O)[C@H](Cc3c[nH]c4ccccc34)NC1=O)C(=O)N1C[C@H](O)C[C@H]1C(=O)N[C@@H](Cc1c[nH]cn1)C(=O)N[C@H](Cc1ccccc1)C(=O)N[C@@H](CCCNC(=N)N)C(=O)N[C@@H](Cc1c[nH]c3ccccc13)C(=O)N2, also called c[c[Cys-Hyp-His-D-Phe-Arg-Trp-Cys]-Hyp-His-D-Phe-Arg-Trp]) [Chem. 32]	120	1980	370
CAHFXWCAHFXW (D-Phe 4, 10; N-MeArg 5, 11; disulphide Cys1-Cys7; head-to-tail amide Cys1-Trp12, also called c[c[Cys-Ala-His-D-Phe-N-MeArg-Trp-Cys]-Ala-His-D-Phe-N-MeArg-Trp]) [Chem. 37]	1570	13100	3310
cyclo(CVH[dF]RWCVH[dF]RW) (disulfide 1-7; SMILES CC(C)[C@@H]1NC(=O)[C@@H]2CSSC[C@H](NC(=O)[C@H](Cc3c[nH]c4ccccc34)NC(=O)[C@H](CCCNC(=N)N)NC(=O)[C@@H](Cc3ccccc3)NC(=O)[C@H](Cc3c[nH]cn3)NC1=O)C(=O)N[C@@H](C(C)C)C(=O)N[C@@H](Cc1c[nH]cn1)C(=O)N[C@H](Cc1ccccc1)C(=O)N[C@@H](CCCNC(=N)N)C(=O)N[C@@H](Cc1c[nH]c3ccccc13)C(=O)N2, also called c[c[Cys-Val-His-D-Phe-Arg-Trp-Cys]-Val-His-D-Phe-Arg-Trp]) [Chem. 36]	40	1050	120
cyclo(C[GABA]H[dF]RWC[GABA]H[dF]RW) (disulfide 1-7; SMILES N=C(N)NCCC[C@@H]1NC(=O)[C@@H](Cc2ccccc2)NC(=O)[C@H](Cc2c[nH]cn2)NC(=O)CCCNC(=O)[C@@H]2CSSC[C@H](NC(=O)[C@H](Cc3c[nH]c4ccccc34)NC1=O)C(=O)NCCCC(=O)N[C@@H](Cc1c[nH]cn1)C(=O)N[C@H](Cc1ccccc1)C(=O)N[C@@H](CCCNC(=N)N)C(=O)N[C@@H](Cc1c[nH]c3ccccc13)C(=O)N2, also called c[c[Cys-GABA-His-D-Phe-Arg-Trp-Cys]-GABA-His-D-Phe-Arg-Trp]) [Chem. 35]	10	280	30

Reference: patent US20200223889A1 (Novo Nordisk, published 2020)
